The values that follow come from patent US6174679.

For the data set, the target named is T1, CIF150/hTAFII150 (Homo sapiens) (UniProt Q6P1X5).
T1 sequence: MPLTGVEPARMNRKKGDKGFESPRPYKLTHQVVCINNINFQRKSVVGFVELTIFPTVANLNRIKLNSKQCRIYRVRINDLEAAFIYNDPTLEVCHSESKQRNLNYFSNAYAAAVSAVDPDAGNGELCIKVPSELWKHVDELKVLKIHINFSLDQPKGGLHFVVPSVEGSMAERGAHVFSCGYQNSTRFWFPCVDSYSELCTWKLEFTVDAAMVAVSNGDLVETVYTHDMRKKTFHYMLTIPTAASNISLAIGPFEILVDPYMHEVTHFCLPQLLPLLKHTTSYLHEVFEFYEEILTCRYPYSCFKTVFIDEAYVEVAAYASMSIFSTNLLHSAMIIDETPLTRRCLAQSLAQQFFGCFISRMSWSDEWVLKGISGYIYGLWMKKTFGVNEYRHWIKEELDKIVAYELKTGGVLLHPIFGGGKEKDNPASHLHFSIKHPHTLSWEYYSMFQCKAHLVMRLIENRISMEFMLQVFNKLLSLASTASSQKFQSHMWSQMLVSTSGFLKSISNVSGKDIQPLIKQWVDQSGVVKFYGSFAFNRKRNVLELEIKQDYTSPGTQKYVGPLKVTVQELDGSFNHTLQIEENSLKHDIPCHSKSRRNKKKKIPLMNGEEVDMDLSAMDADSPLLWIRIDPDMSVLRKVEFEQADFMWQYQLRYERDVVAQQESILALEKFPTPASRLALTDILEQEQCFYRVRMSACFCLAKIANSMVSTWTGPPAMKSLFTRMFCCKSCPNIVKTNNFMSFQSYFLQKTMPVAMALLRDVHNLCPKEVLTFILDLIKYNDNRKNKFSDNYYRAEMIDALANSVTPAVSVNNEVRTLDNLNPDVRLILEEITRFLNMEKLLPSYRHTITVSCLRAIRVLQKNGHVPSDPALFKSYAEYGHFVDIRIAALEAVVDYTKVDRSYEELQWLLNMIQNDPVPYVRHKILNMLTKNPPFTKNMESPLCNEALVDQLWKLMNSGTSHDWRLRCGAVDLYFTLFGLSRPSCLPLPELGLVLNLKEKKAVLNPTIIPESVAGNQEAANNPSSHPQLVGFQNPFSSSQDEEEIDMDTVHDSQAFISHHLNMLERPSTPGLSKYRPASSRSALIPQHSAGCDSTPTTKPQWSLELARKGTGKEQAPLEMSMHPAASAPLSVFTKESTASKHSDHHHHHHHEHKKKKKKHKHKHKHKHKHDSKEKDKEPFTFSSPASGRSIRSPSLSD
The data set can be described thus: EMSA. Particulars: affinity improvement after selection (text gives both three and four rounds); dGdC competitor; supershifted by anti-CIF150 serum. Background: Mobility shift assays separate free from complexed probe on a gel.

With “GAG (double strand) [selected CBE fragments with GAG core]”, the binding signal came out at 5 fold.
